Values of other authors in patent US20250282866A1, “TREATMENT OF DISEASES RELATED TO ATP-BINDING CASSETTE TRANSPORTER 1 DYSFUNCTION USING TREM2 AGONISTS” (VIGIL NEUROSCIENCE, INC., priority 2020, published 2025).
Numbering of substitutions follows the chain as printed. Numbers in names are those of the source.

T1: human TREM2 (Homo sapiens, UniProt Q9NZC2)
T1 sequence (Q9NZC2 19-230): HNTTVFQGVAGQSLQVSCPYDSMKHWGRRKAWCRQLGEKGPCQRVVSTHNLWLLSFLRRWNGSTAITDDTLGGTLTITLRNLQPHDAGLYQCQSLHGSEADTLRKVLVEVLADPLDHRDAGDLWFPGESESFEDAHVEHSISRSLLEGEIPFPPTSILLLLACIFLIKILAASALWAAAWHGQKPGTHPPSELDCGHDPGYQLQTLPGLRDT

B1: V50: 6E7 variant: VH T30G, I50V, F110L; VL L54R, F94L (antibody, V domains shown)
VH: EVQLVQSGAEVKKPGESLKISCKGSGYSFGSYWIAWVRQMPGKGLEWMGVIYPGDSDTRYSPSFQGQVTISADKSISTAYLQWSSLKASDTAMYFCARQRTFYYDSSDYLDYWGQGTLVTVSS
VL: DIQMTQSPSSVSASVGDRVTITCRASQGISSWLAWYQQKPGKAPKLLIYAASSRQNGVPSRFSGSGSGTDFTLTISSLQPEDFATYFCQQADSLPRTFGQGTKLEIK
B2: V62: 6E7 variant: VH T30G, S61A, D108G; VL N56R, Q89G (antibody, V domains shown)
VH: B1 VH with V50I, S61A, D108G, L110F
VL: B1 VL with R54L, N56R, Q89G, L94F
B3: V52: 6E7 variant: VH T30E, Q99G; VL N56R, S93R (antibody, V domains shown)
VH: B1 VH with G30E, V50I, Q99G, L110F
VL: B1 VL with R54L, N56R, S93R, L94F
B4: V72: 6E7 variant: VH A35G, Q99G; VL Q55V, F94Y (antibody, V domains shown)
VH: B1 VH with G30T, A35G, V50I, Q99G, L110F
VL: B1 VL with R54L, Q55V, L94Y
B5: V61: 6E7 variant: VH T30S, S61N, Q99G; VL Q55V, F94L (antibody, V domains shown)
VH: B1 VH with G30S, V50I, S61N, Q99G, L110F
VL: B1 VL with R54L, Q55V
B6: V74: 6E7 variant: VH T30A, T58V, Q99G; VL N56L (antibody, V domains shown)
VH: B1 VH with G30A, V50I, T58V, Q99G, L110F
VL: B1 VL with R54L, N56L, L94F
B7: V76: 6E7 variant: VH T30G, S63E, F110S; VL N56K (antibody, V domains shown)
VH: B1 VH with V50I, S63E, L110S
VL: B1 VL with R54L, N56K, T69R, L94F
B8: V84: 6E7 variant: VH S28G, F110S; VL A50G (antibody, V domains shown)
VH: B1 VH with S28G, G30T, V50I, L110S
VL: B1 VL with A50G, R54L, L94F
B9: V60: 6E7 variant: VH S28H, T58V, F110S; VL N56R, Q89G (antibody, V domains shown)
VH: B1 VH with S28H, G30T, V50I, T58V, L110S
VL: B1 VL with R54L, N56R, Q89G, L94F
B10: V64: 6E7 variant: VH T30Q, Q99G; VL Q55A, F94Y (antibody, V domains shown)
VH: B1 VH with G30Q, V50I, Q99G, L110F
VL: B1 VL with R54L, Q55A, L94Y
B11: V51: 6E7 variant: VH T58V, Q99G, Y112N; VL L54R (antibody, V domains shown)
VH: B1 VH with G30T, V50I, T58V, Q99G, L110F, Y112N
VL: B1 VL with L94F
B12: V63: 6E7 variant: VH T30R, Q99S; VL N56R, S93R (antibody, V domains shown)
VH: B1 VH with G30R, V50I, Q99S, L110F
VL: B1 VL with R54L, N56R, S93R, L94F
B13: V75: 6E7 variant: VH Q99G; VL N56A, F94Y (antibody, V domains shown)
VH: B1 VH with G30T, V50I, Q99G, L110F
VL: B1 VL with R54L, N56A, L94Y
B14: V73: 6E7 variant: VH T30G, S63G, Q99G; VL L54R, F94Y (antibody, V domains shown)
VH: B1 VH with V50I, S63G, Q99G, L110F
VL: B1 VL with L94Y

Target: T1, human TREM2
Conditions: 1st screen; values printed without asterisk; concentration 110 nM or 10 nM (footnote a not given)

| Molecule | Binding Signal (fold over 6E7 Parental antibody) 1st screen 110 nM or 10 nM |
| --- | --- |
| B1 | 4.10 fold over 6E7 Parental antibod |
| B2 | 2.49 fold over 6E7 Parental antibod |
| B3 | 3.00 fold over 6E7 Parental antibod |
| B4 | 3.64 fold over 6E7 Parental antibod |
| B5 | 5.08 fold over 6E7 Parental antibod |
| B6 | 3.94 fold over 6E7 Parental antibod |
| B7 | 4.57 fold over 6E7 Parental antibod |
| B8 | 1.44 fold over 6E7 Parental antibod |
| B9 | 3.26 fold over 6E7 Parental antibod |
| B10 | 5.41 fold over 6E7 Parental antibod |
| B11 | 2.81 fold over 6E7 Parental antibod |
| B12 | 3.76 fold over 6E7 Parental antibod |
| B13 | 4.64 fold over 6E7 Parental antibod |
| B14 | 5.12 fold over 6E7 Parental antibod |

Same assay, conditions: 2nd screen, 2 nM

| Molecule | Binding Signal (fold over 6E7 Parental antibody) 2nd screen 2 nM |
| --- | --- |
| B1 | 3.39 fold over 6E7 Parental antibod |
| B2 | 1.87 fold over 6E7 Parental antibod |
| B3 | 1.78 fold over 6E7 Parental antibod |
| B4 | 2.50 fold over 6E7 Parental antibod |
| B5 | 3.63 fold over 6E7 Parental antibod |
| B6 | 2.54 fold over 6E7 Parental antibod |
| B7 | 4.34 fold over 6E7 Parental antibod |
| B8 | 1.45 fold over 6E7 Parental antibod |
| B9 | 3.35 fold over 6E7 Parental antibod |
| B10 | 4.88 fold over 6E7 Parental antibod |
| B11 | 1.83 fold over 6E7 Parental antibod |
| B12 | 4.91 fold over 6E7 Parental antibod |
| B13 | 3.74 fold over 6E7 Parental antibod |
| B14 | 4.17 fold over 6E7 Parental antibod |

Same assay, conditions: 2nd screen, 10 nM

| Molecule | Binding Signal (fold over 6E7 Parental antibody) 2nd screen 10 nM |
| --- | --- |
| B1 | 4.16 fold over 6E7 Parental antibod |
| B2 | 2.89 fold over 6E7 Parental antibod |
| B3 | 3.09 fold over 6E7 Parental antibod |
| B4 | 4.01 fold over 6E7 Parental antibod |
| B5 | 5.22 fold over 6E7 Parental antibod |
| B6 | 4.01 fold over 6E7 Parental antibod |
| B7 | 4.93 fold over 6E7 Parental antibod |
| B8 | 1.62 fold over 6E7 Parental antibod |
| B9 | 3.63 fold over 6E7 Parental antibod |
| B10 | 5.48 fold over 6E7 Parental antibod |
| B11 | 3.18 fold over 6E7 Parental antibod |
| B12 | 3.71 fold over 6E7 Parental antibod |
| B13 | 4.52 fold over 6E7 Parental antibod |
| B14 | 5.44 fold over 6E7 Parental antibod |
